# Substitutions are numbered along the chain they refer to.
# T1: G5_(845-1508)-A951E-TAP (human), Q8TEQ6
# T1 chain: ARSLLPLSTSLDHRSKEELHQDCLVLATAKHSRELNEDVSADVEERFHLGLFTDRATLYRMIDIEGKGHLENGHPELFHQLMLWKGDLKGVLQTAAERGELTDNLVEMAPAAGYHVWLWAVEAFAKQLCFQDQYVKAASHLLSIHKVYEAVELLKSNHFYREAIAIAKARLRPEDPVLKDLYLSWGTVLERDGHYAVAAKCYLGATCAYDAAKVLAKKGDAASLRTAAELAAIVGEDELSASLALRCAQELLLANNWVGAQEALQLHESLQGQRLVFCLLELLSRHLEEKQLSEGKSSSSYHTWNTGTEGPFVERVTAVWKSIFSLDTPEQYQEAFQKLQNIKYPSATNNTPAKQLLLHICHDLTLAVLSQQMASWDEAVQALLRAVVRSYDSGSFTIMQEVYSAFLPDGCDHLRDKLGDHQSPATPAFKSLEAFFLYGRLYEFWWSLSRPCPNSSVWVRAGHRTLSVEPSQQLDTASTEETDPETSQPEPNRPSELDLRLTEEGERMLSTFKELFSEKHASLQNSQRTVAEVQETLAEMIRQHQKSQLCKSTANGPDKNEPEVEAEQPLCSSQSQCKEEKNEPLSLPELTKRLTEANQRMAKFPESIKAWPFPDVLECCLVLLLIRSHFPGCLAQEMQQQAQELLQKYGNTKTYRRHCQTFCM
# T2: G5_(845-1508)-L1367P-TAP (human, UniProt Q8TEQ6 845-1508, L1367P)
# T2 construct: Vector pcDNA3-CTAP; Expressed at lower levels than the WT; also called RBS1 variant L1367P; source: HEK293, transfected, in soluble cell extract; purified by TAP
# T2 sequence (looked up): T1 chain with E107A, L523P
# T3: G5_(845-1508)-D1019E-TAP (human, UniProt Q8TEQ6 845-1508, D1019E)
# T3 construct: Vector pcDNA3-CTAP; source: HEK293, transfected, in soluble cell extract; purified by TAP
# T3 sequence (looked up): T1 chain with E107A, D175E
# T4: G5_(845-1508)-R1016C-TAP (human, UniProt Q8TEQ6 845-1508, R1016C)
# T4 construct: Vector pcDNA3-CTAP; source: HEK293, transfected, in soluble cell extract; purified by TAP
# T4 sequence (looked up): T1 chain with E107A, R172C
# B1: endogenous Gemin5 protein (natural protein, human (endogenous in HEK293), UniProt Q8TEQ6 1-1508, looked up)
# chain: MGQEPRTLPPSPNWYCARCSDAVPGGLFGFAARTSVFLVRVGPGAGESPGTPPFRVIGELVGHTERVSGFTFSHHPGQYNLCATSSDDGTVKIWDVETKTVVTEHALHQHTISTLHWSPRVKDLIVSGDEKGVVFCYWFNRNDSQHLFIEPRTIFCLTCSPHHEDLVAIGYKDGIVVIIDISKKGEVIHRLRGHDDEIHSIAWCPLPGEDCLSINQEETSEEAEITNGNAVAQAPVTKGCYLATGSKDQTIRIWSCSRGRGVMILKLPFLKRRGGGIDPTVKERLWLTLHWPSNQPTQLVSSCFGGELLQWDLTQSWRRKYTLFSASSEGQNHSRIVFNLCPLQTEDDKQLLLSTSMDRDVKCWDIATLECSWTLPSLGGFAYSLAFSSVDIGSLAIGVGDGMIRVWNTLSIKNNYDVKNFWQGVKSKVTALCWHPTKEGCLAFGTDDGKVGLYDTYSNKPPQISSTYHKKTVYTLAWGPPVPPMSLGGEGDRPSLALYSCGGEGIVLQHNPWKLSGEAFDINKLIRDTNSIKYKLPVHTEISWKADGKIMALGNEDGSIEIFQIPNLKLICTIQQHHKLVNTISWHHEHGSQPELSYLMASGSNNAVIYVHNLKTVIESSPESPVTITEPYRTLSGHTAKITSVAWSPHHDGRLVSASYDGTAQVWDALREEPLCNFRGHRGRLLCVAWSPLDPDCIYSGADDFCVHKWLTSMQDHSRPPQGKKSIELEKKRLSQPKAKPKKKKKPTLRTPVKLESIDGNEEESMKENSGPVENGVSDQEGEEQAREPELPCGLAPAVSREPVICTPVSSGFEKSKVTINNKVILLKKEPPKEKPETLIKKRKARSLLPLSTSLDHRSKEELHQDCLVLATAKHSRELNEDVSADVEERFHLGLFTDRATLYRMIDIEGKGHLENGHPELFHQLMLWKGDLKGVLQTAAERGELTDNLVAMAPAAGYHVWLWAVEAFAKQLCFQDQYVKAASHLLSIHKVYEAVELLKSNHFYREAIAIAKARLRPEDPVLKDLYLSWGTVLERDGHYAVAAKCYLGATCAYDAAKVLAKKGDAASLRTAAELAAIVGEDELSASLALRCAQELLLANNWVGAQEALQLHESLQGQRLVFCLLELLSRHLEEKQLSEGKSSSSYHTWNTGTEGPFVERVTAVWKSIFSLDTPEQYQEAFQKLQNIKYPSATNNTPAKQLLLHICHDLTLAVLSQQMASWDEAVQALLRAVVRSYDSGSFTIMQEVYSAFLPDGCDHLRDKLGDHQSPATPAFKSLEAFFLYGRLYEFWWSLSRPCPNSSVWVRAGHRTLSVEPSQQLDTASTEETDPETSQPEPNRPSELDLRLTEEGERMLSTFKELFSEKHASLQNSQRTVAEVQETLAEMIRQHQKSQLCKSTANGPDKNEPEVEAEQPLCSSQSQCKEEKNEPLSLPELTKRLTEANQRMAKFPESIKAWPFPDVLECCLVLLLIRSHFPGCLAQEMQQQAQELLQKYGNTKTYRRHCQTFCM
# notes: Gemin5, human, full-length endogenous protein of HEK293 cells; also called full-length Gemin5; source: endogenous, HEK293 soluble cell extract
# Tests used:
# [1] = biological target: T1, G5_(845-1508)-A951E-TAP (human), Q8TEQ6; test: co-IP; G5_(845-1508)-TAP baits expressed 24 h in HEK293; complexes purified by TAP (IgG Sepharose, TEV protease, calmodulin); endogenous Gemin5 and bait detected by WB with anti-Gemin5; Gemin5 intensity normalised to the purified bait; conditions: remark: other sources report otherwise
# G5_(845-1508)-L1367P-TAP = biological target: T2, G5_(845-1508)-L1367P-TAP; test: affinity purification with mass spectrometry; G5_(845-1508)-TAP baits expressed in HEK293; TAP purification, in-gel trypsin digestion, LC-MS/MS, PEAKS; two biological replicates; at least two distinct peptides; conditions: partners not purified
# G5_(845-1508)-D1019E-TAP [2] = biological target: T3, G5_(845-1508)-D1019E-TAP; test: as above; conditions: partners not purified
# G5_(845-1508)-R1016C-TAP [3] = biological target: T4, G5_(845-1508)-R1016C-TAP; test: as above; conditions: partners not purified
# G5_(845-1508)-D1019E-TAP [4] = biological target: T3, G5_(845-1508)-D1019E-TAP; test: co-IP; G5_(845-1508)-TAP baits expressed 24 h in HEK293; complexes purified by TAP (IgG Sepharose, TEV protease, calmodulin); endogenous Gemin5 and bait detected by WB with anti-Gemin5; Gemin5 intensity normalised to the purified bait; conditions: partners not purified
# G5_(845-1508)-R1016C-TAP [5] = biological target: T4, G5_(845-1508)-R1016C-TAP; test: as above; conditions: partners not purified
binder,measurement,setting,value
B1,fold by which the recruitment by WT exceeds that by this mutant,[1],10 fold
same,"ratio of peptide reads of region 1-844 to region 845-1508, relative to G5_(845-1508)-WT",G5_(845-1508)-L1367P-TAP,0.9
same,"ratio of peptide reads of region 1-844 to region 845-1508, relative to G5_(845-1508)-WT",G5_(845-1508)-D1019E-TAP [2],0.56
same,"ratio of peptide reads of region 1-844 to region 845-1508, relative to G5_(845-1508)-WT",G5_(845-1508)-R1016C-TAP [3],0.77
same,co-IP intensity relative to the WT protein,G5_(845-1508)-D1019E-TAP [4],62%
same,co-IP intensity relative to the WT protein,G5_(845-1508)-R1016C-TAP [5],58%

# Reference: PMC8989681, “Functional and structural deficiencies of Gemin5 variants associated with neurological disorders” (Life Science Alliance, 2022)
